Results: PMC10728069

What was measured:
[1] = target: T1, His-MoSPAB1ΔSP (Magnaporthe oryzae, UniProt G4N0C3 22-298); assay: EMSA; […], buffer not stated; […]; conditions: protein: recombinant; tags: His, ProS2 (pCold-ProS2); label: 5' biotin (both strands); blunt
[2] = target: T1, His-MoSPAB1ΔSP; assay: competition; […], buffer not stated; […]; conditions: protein: recombinant; tags: His, ProS2 (pCold-ProS2); blunt

B1: Bsr-d1 promoter probe 1 (dsDNA)
DNA 1: AATCCCATCAAATCATCCACCGCTCGCT
DNA 2: AGCGAGCGGTGGATGATTTGATGGGATT
B1: binds [1].

B2: Bsr-d1 promoter probe 2 (dsDNA)
DNA 1: ACCGCTCGCTGCTGCTGCTACGTACTA
DNA 2: TAGTACGTAGCAGCAGCAGCGAGCGGT
B2: binds [1].

B3: Bsr-d1 promoter probe 3 (dsDNA)
DNA 1: CTACGTACTATACAGCTTGATTAATTAG
DNA 2: CTAATTAATCAAGCTGTATAGTACGTAG
B3: binds [1].

B4: Bsr-d1 promoter probe 4 (dsDNA)
DNA 1: AGCTTGATTAATTAGGTTTTACGACGAC
DNA 2: GTCGTCGTAAAACCTAATTAATCAAGCT
B4: binds [1].

B5: Bsr-d1 promoter probe 5 (dsDNA)
DNA 1: GGTTTTACGACGACGGCAACGGGGACAGAT
DNA 2: ATCTGTCCCCGTTGCCGTCGTCGTAAAACC
B5: binds [1].

B6: probe 1 mutant competitor (dsDNA)
DNA 1: AATCCCATCAAATCATCCAAAAAAAAAT
DNA 2: ATTTTTTTTTGGATGATTTGATGGGATT
B6: no binding [2].

B7: probe 2 mutant competitor (dsDNA)
DNA 1: ACTAAAGAGAGCTGCTGCTACGTACTA
DNA 2: TAGTACGTAGCAGCAGCTCTCTTTAGT
B7: no binding [2].
